Experimental data published in the supplement of paper PMC10567573.

B1: PPP2R2C (parent)
chain: YSSSKGSLRLCDMRAAALCDKHSK

Variants of: B1
Assay: protein stability index of a GFP-peptide fusion (GPS, HEK-293T) (PSI 1-6); higher = more stable
Conditions: c terminus: a fixed tail appended
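Note: lentivirally expressed fusions sorted by FACS into six bins by GFP to DsRed ratio, PSI derived from sequencing read proportions per bin multiplied by bin number.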

Row | Variant | protein stability index
1 | YSSSKGSLRLCDMRAAALGDKHSK [C19G] | 1.25
2 | YSSSKGSLRLCDMRAAALSDKHSK [C19S] | 1.73
3 | YSSSKGSLRLCDMRAAALMDKHSK [C19M] | 1.68
4 | YSSSKGSLRLCDMRAAALKDKHSK [C19K] | 2.14
5 | YSSSKGSLRLCDMRAAALDDKHSK [C19D] | 2.3
6 | YSSSKGSLRLCDMRAAALQDKHSK [C19Q] | 1.69
7 | YSSSKGSLRLCDMRAAALNDKHSK [C19N] | 1.58
8 | YSSSKGSLRLCDMRAAALYDKHSK [C19Y] | 2.01
9 | YSSSKGSLRLCDMRAAALFDKHSK [C19F] | 2.32
10 | YSSSKGSLRLCDMRAAALVDKHSK [C19V] | 1.4
11 | YSSSKGSLRLCDMRAAALRDKHSK [C19R] | 2.06
12 | YSSSKGSLRLCDMRAAALWDKHSK [C19W] | 1.69
13 | YSSSKGSLRLCDMRAAALPDKHSK [C19P] | 1.84
14 | YSSSKGSLRLCDMRAAALHDKHSK [C19H] | 1.56
15 | YSSSKGSLRLCDMRAAALEDKHSK [C19E] | 1.62
16 | YSSSKGSLRLCDMRAAALIDKHSK [C19I] | 2.03
17 | YSSSKGSLRLCDMRAAALTDKHSK [C19T] | 1.71
18 | YSSSKGSLRLCDMRAAALADKHSK [C19A] | 1.74
19 | YSSSKGSLRLCDMRAAALLDKHSK [C19L] | 1.55
20 | YSSSKGSLRLCDMRAAALCGKHSK [D20G] | 2.62
21 | YSSSKGSLRLCDMRAAALCHKHSK [D20H] | 2.64
22 | YSSSKGSLRLCDMRAAALCEKHSK [D20E] | 1.97
23 | YSSSKGSLRLCDMRAAALCAKHSK [D20A] | 1.64
24 | YSSSKGSLRLCDMRAAALCCKHSK [D20C] | 1.41

Row | Variant | protein stability index
25 | YSSSKGSLRLCDMRAAALCFKHSK [D20F] | 2.19
26 | YSSSKGSLRLCDMRLAALCDKHSK [A15L] | 1.54
27 | YSSSKGSLRLCDMRPAALCDKHSK [A15P] | 2.43
28 | YSSSKGSLRLCDMRVAALCDKHSK [A15V] | 1.6
29 | YSSSKGSLRLCDMRNAALCDKHSK [A15N] | 2.54
30 | YSSSKGSLRLCDMRSAALCDKHSK [A15S] | 2.31
31 | YSSSKGSLRLCDMRTAALCDKHSK [A15T] | 2.09
32 | YSSSKGSLRLCDMRRAALCDKHSK [A15R] | 1.38
33 | YSSSKGSLRLCDMRMAALCDKHSK [A15M] | 2.72
34 | YSSSKGSLRLCDMRWAALCDKHSK [A15W] | 1.81
35 | YSSSKGSLRLCDMRQAALCDKHSK [A15Q] | 1.77
36 | YSSSKGSLRLCDMRYAALCDKHSK [A15Y] | 2.34
37 | YSSSKGSLRLCDMRKAALCDKHSK [A15K] | 1.58
38 | YSSSKGSLRLCDMRAAPLCDKHSK [A17P] | 2.1
39 | YSSSKGSLRLCDMRAACLCDKHSK [A17C] | 2.06
40 | YSSSKGSLRLCDMRAADLCDKHSK [A17D] | 1.51
41 | YSSSKGSLRLCDMRAAGLCDKHSK [A17G] | 1.61
42 | YSSSKGSLRLCDMRAAYLCDKHSK [A17Y] | 2.06
43 | YSSSKGSLRLCDMRAAKLCDKHSK [A17K] | 1.85
44 | YSSSKGSLRLCDMRAAFLCDKHSK [A17F] | 2.36
45 | YSSSKGSLRLCDMRAAQLCDKHSK [A17Q] | 3.18
46 | YSSSKGSLRLCDMRAANLCDKHSK [A17N] | 3.18
47 | YSSSKGSLRLCDMRAATLCDKHSK [A17T] | 1.52
48 | YSSSKGSLRLCDMRAAWLCDKHSK [A17W] | 2.33

Row | Variant | protein stability index
49 | YSSSKGSLRLCDMRAARLCDKHSK [A17R] | 1.78
50 | YSSSKGSLRLCDMRAAELCDKHSK [A17E] | 2.16
51 | YSSSKGSLRLCDMRAAILCDKHSK [A17I] | 1.39
52 | YSSSKGSLRLCDMRAAMLCDKHSK [A17M] | 1.79
53 | YSSSKGSLRLCDMRAAHLCDKHSK [A17H] | 2.29
54 | YSSSKGSLRLCDMRAASLCDKHSK [A17S] | 1.31
55 | YSSSKGSLRLCDMRAALLCDKHSK [A17L] | 1.75
56 | YSSSKGSLRLCDMRAAVLCDKHSK [A17V] | 3.45
57 | YSSSKGSLRLCDMRARALCDKHSK [A16R] | 2.04
58 | YSSSKGSLRLCDMRAPALCDKHSK [A16P] | 1.64
59 | YSSSKGSLRLCDMRANALCDKHSK [A16N] | 2.05
60 | YSSSKGSLRLCDMRAFALCDKHSK [A16F] | 2.2
61 | YSSSKGSLRLCDMRAKALCDKHSK [A16K] | 2.53
62 | YSSSKGSLRLCDMRAWALCDKHSK [A16W] | 1.23
63 | YSSSKGSLRLCDMRAHALCDKHSK [A16H] | 2.06
64 | YSSSKGSLRLCDMRAMALCDKHSK [A16M] | 1.5
65 | YSSSKGSLRLCDMRAEALCDKHSK [A16E] | 2.28
66 | YSSSKGSLRLCDMRATALCDKHSK [A16T] | 1.97
67 | YSSSKGSLRLCDMRADALCDKHSK [A16D] | 2.85
68 | YSSSKGSLRLCDMRAGALCDKHSK [A16G] | 2.55
69 | YSSSKGSLRLCDMRASALCDKHSK [A16S] | 2.02
70 | YSSSKGSLRLCDMRACALCDKHSK [A16C] | 2.56
71 | YSSSKGSLRLCDMRAVALCDKHSK [A16V] | 1.82
72 | YSSSKGSLRLCDMRALALCDKHSK [A16L] | 1.3

Row | Variant | protein stability index
73 | YSSSKGSLRLCDMRAIALCDKHSK [A16I] | 1.84
74 | YSSSKGSLRLCDMRAYALCDKHSK [A16Y] | 1.63
75 | YSSSKGSLRLCDMRAQALCDKHSK [A16Q] | 2.18
76 | YSSSKGSLRLCDMRAAAHCDKHSK [L18H] | 2.03
77 | YSSSKGSLRLCDMRAAACCDKHSK [L18C] | 1.55
78 | YSSSKGSLRLCDMRAAAQCDKHSK [L18Q] | 2.17
79 | YSSSKGSLRLCDMRAAAACDKHSK [L18A] | 2.15
80 | YSSSKGSLRLCDMRAAANCDKHSK [L18N] | 1.65
81 | YSSSKGSLRLCDMRAAADCDKHSK [L18D] | 1.48
82 | YSSSKGSLRLCDMRAAAWCDKHSK [L18W] | 1.44
83 | YSSSKGSLRLCDMRAAAMCDKHSK [L18M] | 1.13
84 | YSSSKGSLRLCDMRAAARCDKHSK [L18R] | 1.96
85 | YSSSKGSLRLCDMRAAASCDKHSK [L18S] | 1.79
86 | YSSSKGSLRLCDMRAAAECDKHSK [L18E] | 1.9
87 | YSSSKGSLRLCDMRAAAPCDKHSK [L18P] | 1.58
88 | YSSSKGSLRLCDMRAAAVCDKHSK [L18V] | 2.02
89 | YSSSKGSLRLCDMRAAAKCDKHSK [L18K] | 1.73
90 | YSSSKGSLRLCDMRAAAFCDKHSK [L18F] | 1.69
91 | YSSSKGSLRLCDMRAAAYCDKHSK [L18Y] | 1.8
92 | YSSSKGSLRLCDMRAAAGCDKHSK [L18G] | 1.52
93 | YSSSKGSLRLCDMRAAATCDKHSK [L18T] | 1.81
94 | YSSSKGSLRLCDMRAAAICDKHSK [L18I] | 1.96
